Patent publication US20120322725A1 (INDIANA UNIVERSITY RESEARCH AND TECHNOLOGY, published 2012)
Bridge positions count the residues as written; N and C are the ends. Square brackets hold non-standard residues; d marks the D form. Ends that are not written are not given here. * marks the point of attachment. Carboxymethyl = O=C(O)C*; NSG‑1 = not defined here; NSG‑2 = not defined here

Legend:
glucagon receptor [1] = target: T1, glucagon receptor (UniProt P47871 26-477, limits assumed); assay: assay not named in Table F; taken as receptor binding
T1 construct: whole, on cells; also called GR; Glucagon
T1 sequence (P47871 26-477 limits assumed): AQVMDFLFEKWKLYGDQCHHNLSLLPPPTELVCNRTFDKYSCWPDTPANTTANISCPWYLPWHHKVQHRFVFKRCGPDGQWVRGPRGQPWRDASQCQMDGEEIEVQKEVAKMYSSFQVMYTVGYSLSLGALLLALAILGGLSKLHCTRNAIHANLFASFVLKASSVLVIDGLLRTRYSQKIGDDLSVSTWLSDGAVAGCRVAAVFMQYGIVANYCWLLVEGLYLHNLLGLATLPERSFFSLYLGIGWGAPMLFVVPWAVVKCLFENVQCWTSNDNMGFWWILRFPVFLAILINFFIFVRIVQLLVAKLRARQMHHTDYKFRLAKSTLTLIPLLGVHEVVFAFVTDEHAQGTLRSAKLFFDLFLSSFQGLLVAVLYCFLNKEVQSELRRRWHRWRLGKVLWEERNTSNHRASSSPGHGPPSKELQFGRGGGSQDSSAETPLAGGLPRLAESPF

glucagon receptor [2] = target: T1, glucagon receptor; assay: receptor binding, method not described
glucagon receptor [3] = target: T1, glucagon receptor; assay: cell-based or functional assay
glucagon receptor [4] = target: T1, glucagon receptor; assay: cell-based or functional assay; remark: listed apart in the source
glucagon receptor [5] = target: T1, glucagon receptor; assay: receptor binding, method not described; remark: listed apart in the source
glucagon receptor [6] = target: T1, glucagon receptor; assay: cell-based or functional assay; remark: listed apart in the source

B1: [hGlu^9]Glucagon(aa2-29)-NH2 (peptide)
peptide: SQGTFTSXYSKYLDSRRAQDFVQWLMNT
modifications: homoglutamic acid at position 9; C-terminal amide
notes: also called peptide no
IC50 (glucagon receptor [1]): 0.0081 µM

B2: [desHis^1, hCys^9(SO3^-), Phe^25, Leu^27]Glucagon-NH2 (peptide)
peptide: SQGTFTSXYSKYLDSRRAQDFVQFLLNT
HELM: PEPTIDE1{S.Q.G.T.F.T.S.[O=C([C@H](CCS(=O)(=O)O)N[*:1])[*:2]].Y.S.K.Y.L.D.S.R.R.A.Q.D.F.V.Q.F.L.L.N.T.[am]}$$$$V2.0; N-terminus assumed
SMILES: CC(C)C[C@H](NC(=O)[C@H](Cc1ccc(O)cc1)NC(=O)[C@H](CCCCN)NC(=O)[C@H](CO)NC(=O)[C@H](Cc1ccc(O)cc1)NC(=O)[C@H](CCS(=O)(=O)O)NC(=O)[C@H](CO)NC(=O)[C@@H](NC(=O)[C@H](Cc1ccccc1)NC(=O)[C@@H](NC(=O)CNC(=O)[C@H](CCC(N)=O)NC(=O)[C@@H](N)CO)[C@@H](C)O)[C@@H](C)O)C(=O)N[C@@H](CC(=O)O)C(=O)N[C@@H](CO)C(=O)N[C@@H](CCCNC(=N)N)C(=O)N[C@@H](CCCNC(=N)N)C(=O)N[C@@H](C)C(=O)N[C@@H](CCC(N)=O)C(=O)N[C@@H](CC(=O)O)C(=O)N[C@@H](Cc1ccccc1)C(=O)N[C@H](C(=O)N[C@@H](CCC(N)=O)C(=O)N[C@@H](Cc1ccccc1)C(=O)N[C@@H](CC(C)C)C(=O)N[C@@H](CC(C)C)C(=O)N[C@@H](CC(N)=O)C(=O)N[C@H](C(N)=O)[C@@H](C)O)C(C)C
notes: also called Cmpd
IC50 (glucagon receptor [2]): 0.0139 µM
cAMP Induction EC50 (glucagon receptor [3]): 0.43 µM

B3: [(NSG-2)^9]Glucagon(aa2-29)-NH2 (peptide)
peptide: SQGTFTS[NSG‑2]YSKYLDSRRAQDFVQWLMNT-NH2
modifications: reading uncertain
notes: also called peptide no
IC50 (glucagon receptor [1]): 2.35 µM

B4: [(NSG-1)^9]Glucagon(aa2-29)-NH2 (peptide)
peptide: SQGTFTS[NSG‑1]YSKYLDSRRAQDFVQWLMNT-NH2
modifications: reading uncertain
notes: also called peptide no
IC50 (glucagon receptor [1]): 0.983 µM

B5: [(CSA-1)^9]Glucagon(aa2-29)-NH2 (peptide)
peptide: SQGTFTSC(Carboxymethyl)YSKYLDSRRAQDFVQWLMNT-NH2
modifications: N-terminus assumed
SMILES: CSCC[C@H](NC(=O)[C@H](CC(C)C)NC(=O)[C@H](Cc1c[nH]c2ccccc12)NC(=O)[C@H](CCC(N)=O)NC(=O)[C@@H](NC(=O)[C@H](Cc1ccccc1)NC(=O)[C@H](CC(=O)O)NC(=O)[C@H](CCC(N)=O)NC(=O)[C@H](C)NC(=O)[C@H](CCCNC(=N)N)NC(=O)[C@H](CCCNC(=N)N)NC(=O)[C@H](CO)NC(=O)[C@H](CC(=O)O)NC(=O)[C@H](CC(C)C)NC(=O)[C@H](Cc1ccc(O)cc1)NC(=O)[C@H](CCCCN)NC(=O)[C@H](CO)NC(=O)[C@H](Cc1ccc(O)cc1)NC(=O)[C@H](CSCC(=O)O)NC(=O)[C@H](CO)NC(=O)[C@@H](NC(=O)[C@H](Cc1ccccc1)NC(=O)[C@@H](NC(=O)CNC(=O)[C@H](CCC(N)=O)NC(=O)[C@@H](N)CO)[C@@H](C)O)[C@@H](C)O)C(C)C)C(=O)N[C@@H](CC(N)=O)C(=O)N[C@H](C(N)=O)[C@@H](C)O
notes: also called peptide no
IC50 (glucagon receptor [1]): 0.0127 µM

B6: [(CSA-2)^9]Glucagon(aa2-29)-NH2 (peptide)
peptide: SQGTFTSCYSKYLDSRRAQDFVQWLMNT
HELM: PEPTIDE1{S.Q.G.T.F.T.S.[O=C(O)CCSC[C@H](N[*:1])C(=O)[*:2]].Y.S.K.Y.L.D.S.R.R.A.Q.D.F.V.Q.W.L.M.N.T.[am]}$$$$V2.0; N-terminus assumed
SMILES: CSCC[C@H](NC(=O)[C@H](CC(C)C)NC(=O)[C@H](Cc1c[nH]c2ccccc12)NC(=O)[C@H](CCC(N)=O)NC(=O)[C@@H](NC(=O)[C@H](Cc1ccccc1)NC(=O)[C@H](CC(=O)O)NC(=O)[C@H](CCC(N)=O)NC(=O)[C@H](C)NC(=O)[C@H](CCCNC(=N)N)NC(=O)[C@H](CCCNC(=N)N)NC(=O)[C@H](CO)NC(=O)[C@H](CC(=O)O)NC(=O)[C@H](CC(C)C)NC(=O)[C@H](Cc1ccc(O)cc1)NC(=O)[C@H](CCCCN)NC(=O)[C@H](CO)NC(=O)[C@H](Cc1ccc(O)cc1)NC(=O)[C@H](CSCCC(=O)O)NC(=O)[C@H](CO)NC(=O)[C@@H](NC(=O)[C@H](Cc1ccccc1)NC(=O)[C@@H](NC(=O)CNC(=O)[C@H](CCC(N)=O)NC(=O)[C@@H](N)CO)[C@@H](C)O)[C@@H](C)O)C(C)C)C(=O)N[C@@H](CC(N)=O)C(=O)N[C@H](C(N)=O)[C@@H](C)O
notes: also called peptide no
IC50 (glucagon receptor [1]): 0.0133 µM

B7: [PLA6, D9, D28]Glucagon(aa6-29)-NH2 (peptide)
peptide: XTSDYSKYLDSRRAQDFVQWLMDT
modifications: PLA at position 6, N-terminal to residues 7-29; C-terminal amide
IC50(nM) (cAMP, inhibit Glucagon) 0.1 nM or 0.2 nM (glucagon receptor [4]): 1.32 nM
IC50 (glucagon receptor [5]): 0.009 µM

B8: [PLA6, D9]Glucagon(aa6-29)-COOH (peptide)
peptide: XTSDYSKYLDSRRAQDFVQWLMNT
HELM: PEPTIDE1{[O=C([C@@H](O)Cc1ccccc1)[*:2]].T.S.D.Y.S.K.Y.L.D.S.R.R.A.Q.D.F.V.Q.W.L.M.N.T}$$$$V2.0; N-terminus assumed
SMILES: CSCC[C@H](NC(=O)[C@H](CC(C)C)NC(=O)[C@H](Cc1c[nH]c2ccccc12)NC(=O)[C@H](CCC(N)=O)NC(=O)[C@@H](NC(=O)[C@H](Cc1ccccc1)NC(=O)[C@H](CC(=O)O)NC(=O)[C@H](CCC(N)=O)NC(=O)[C@H](C)NC(=O)[C@H](CCCNC(=N)N)NC(=O)[C@H](CCCNC(=N)N)NC(=O)[C@H](CO)NC(=O)[C@H](CC(=O)O)NC(=O)[C@H](CC(C)C)NC(=O)[C@H](Cc1ccc(O)cc1)NC(=O)[C@H](CCCCN)NC(=O)[C@H](CO)NC(=O)[C@H](Cc1ccc(O)cc1)NC(=O)[C@H](CC(=O)O)NC(=O)[C@H](CO)NC(=O)[C@@H](NC(=O)[C@@H](O)Cc1ccccc1)[C@@H](C)O)C(C)C)C(=O)N[C@@H](CC(N)=O)C(=O)N[C@H](C(=O)O)[C@@H](C)O
IC50(nM) (cAMP, inhibit Glucagon) 0.1 nM or 0.2 nM (glucagon receptor [4]): 13.2 nM
IC50 (glucagon receptor [5]): 0.0155 µM

B9: [desHis^1, desPhe^6, hCys^9(SO3^-), Phe^25, Leu^27]Glucagon-NH2 (peptide)
peptide: SQGTTSXYSKYLDSRRAQDFVQFLLNT
HELM: PEPTIDE1{S.Q.G.T.T.S.[O=C([C@H](CCS(=O)(=O)O)N[*:1])[*:2]].Y.S.K.Y.L.D.S.R.R.A.Q.D.F.V.Q.F.L.L.N.T.[am]}$$$$V2.0; N-terminus assumed
SMILES: CC(C)C[C@H](NC(=O)[C@H](Cc1ccc(O)cc1)NC(=O)[C@H](CCCCN)NC(=O)[C@H](CO)NC(=O)[C@H](Cc1ccc(O)cc1)NC(=O)[C@H](CCS(=O)(=O)O)NC(=O)[C@H](CO)NC(=O)[C@@H](NC(=O)[C@@H](NC(=O)CNC(=O)[C@H](CCC(N)=O)NC(=O)[C@@H](N)CO)[C@@H](C)O)[C@@H](C)O)C(=O)N[C@@H](CC(=O)O)C(=O)N[C@@H](CO)C(=O)N[C@@H](CCCNC(=N)N)C(=O)N[C@@H](CCCNC(=N)N)C(=O)N[C@@H](C)C(=O)N[C@@H](CCC(N)=O)C(=O)N[C@@H](CC(=O)O)C(=O)N[C@@H](Cc1ccccc1)C(=O)N[C@H](C(=O)N[C@@H](CCC(N)=O)C(=O)N[C@@H](Cc1ccccc1)C(=O)N[C@@H](CC(C)C)C(=O)N[C@@H](CC(C)C)C(=O)N[C@@H](CC(N)=O)C(=O)N[C@H](C(N)=O)[C@@H](C)O)C(C)C
notes: also called Cmpd
IC50 (glucagon receptor [2]): 0.0533 µM
cAMP Induction EC50 (glucagon receptor [3]): 3.21 µM
cAMP Inhibition IC50 (glucagon receptor [3]): 9.22 µM

B10: [A2E3, E16K20(Lactam),D28]G(2~29) (peptide)
peptide: AEGTFTSEYSKYLDERRAKDFVQWLMDT
modifications: lactam 15-19
Glucagon IC50 (glucagon receptor [6]): 0.063 µM
